Results as given in paper PMC5923229.

How the values were obtained:
[1] = target: H46R/H48Q SOD1 artificial copper site mutant (UniProt P00441); assay: native MS; nanoESI of SOD1 at different protein concentrations in 200 mM NH4OAc (pH 6.8), gentle conditions; monomer and dimer signal compared; dimer to monomers
[2] = target: H46R/H48Q SOD1 with ebselen conjugated at Cys111 (UniProt P00441); assay: as above

Row | Kd [1] | Kd [2] | Substance
1 | 5300 nM |  | H46R/H48Q SOD1 artificial copper site mutant (from UniProt P00441 2-154) (enzyme)
2 |  | 220 nM | H46R/H48Q SOD1 with ebselen conjugated at Cys111 (from UniProt P00441 2-154) (enzyme)
